Data published in patent US9539338B2, “Polymer-based protein engineering methods to rationally tune enzyme activity, pH-dependence and stability” (Carnegie Mellon University, priority 2013, dated 2017).

Columns and labels:
NS-AAPF-pNA = target: T1, NS-AAPF-pNA (Bos taurus, UniProt P00766); experiment: CT and CT conjugate biocatalytic activity, 2.5 to 37.5° C.; assay type: biochemical
T1 construct: purchased Sigma Aldrich; host or cells: bovine pancreas
Method: N-succinyl-L-Ala-L-Ala-L-Pro-L-Phe-p-nitroanilide was used as a substrate for enzyme bioactivity assays. In a cuvette, 0.1 M sodium phosphate buffer (2820-2970 μL, pH 8.0), substrate (0-150 μL, 6 mg/mL in DMSO (0-500 μM)), and enzyme (30 μL, 0.1 mg enzyme/mL 0.1 M pH 8.0 sodium phosphate buffer (0.04 μM)) were mixed. The rate of the hydrolysis was determined by recording the increase in absorbance at 412 nm for the first 30 seconds after mixing. KM and kcat values were calculated using EnzFitter software when plotting substrate concentration versus initial hydrolysis velocity.
CT conjugate kinetics were examined at a variety of temperatures (2.5° C., 7° C., 16.5° C., 24.5° C., 33° C., and 37.5° C.) to determine the effect of polymer UCST and LCST phase transitions and molecular weight on enzyme kinetics (see FIGS. 11(a)-(c) and Table 16 below).

[1] = Stability at 50 or 60° C. (chymotrypsin-pQA); assay type: physicochemical; conditions: 0.1 M sodium phosphate buffer pH 8.0
Method: […] Aliquots (50 μL) were removed and kept at 0° C. before measuring residual activity. The residual activity was calculated as a ratio of initial rates of hydrolysis reaction at given incubation time over the initial activity for each specific sample.

[2] = target: T2, Bowman-Birk trypsin-chymotrypsin inhibitor from glycine max (GM) (Glycine max, UniProt P01055); experiment: Inhibitor binding study with Bowman-Birk inhibitor from glycine max; assay type: biochemical, glycine max (soybean); conditions: for Apparent Vmax / KM/Vmax: pH 8.0
T2 construct: purchased Sigma Aldrich; bovine pancreas for chymotrypsin
Method: FIGS. 24A and B show (A) Substrate/initial velocity plots and (B) secondary plots to determine inhibitor constant for native chymotrypsin with GM in 0.1 M sodium phosphate buffer (pH 8) at 25° C. […]
FIGS. 25A and B show (A) Substrate/initial velocity plots and (B) secondary plots to determine inhibitor constant for chyomtrypsin-pQA200 with GM in 0.1 M sodium phosphate buffer (pH 8) at 25° C. […]
Enzyme inhibition was assayed by measuring the hydrolytic activities of samples which contained a fixed concentration of protease and varying amounts of inhibitor, including a blank with no inhibitor. Inhibitors and peptide substrate were simultaneously added to the native and conjugate solutions immediately before measuring initial rates. The initial rate of hydrolysis of the peptide substrate was monitored by recording the increase in absorption at 412 nm. To determine dissociation constant of the enzyme-inhibitor complexes (Ki), Vmax app and KM app were determined by non-linear curve fitting (equation for Michaelis-Menten parameters) of plots of initial rate versus substrate concentration using the Enzfitter software. The dissociation constants were calculated from secondary plot of KM app/Vmax app versus initial inhibitor concentration.

[3] = Size measurements during 167 mM HCl (pH 1) incubation; assay type: physicochemical
Method: CT conjugates (4 μM) and native CT (29 μM) passed through a […] cellulose filter were incubated in 167 mM HCl at 37° C. in 1 mL aliquots. Aliquots were removed from incubation at each specified time point. Hydrodynamic diameter was then determined using a Malvern zetasizer nano-ZS at 25° C. Intensity PSD measurements, averaged over five sample runs at each time point, were used to calculate hydrodynamic diameter (Dh).

Suc-AAPF-pNA = target: T3, Suc-AAPF-pNA (Bos taurus, UniProt P00766); experiment: Enzyme activity: hydrolysis of Suc-AAPF-pNA at pH 5-10 (native CT, chymotrypsin-pQA conjugates); assay type: biochemical; conditions: 0.1 M phosphate buffer
T3 construct: purchased Sigma Aldrich; host or cells: bovine pancreas
Method: N-Succinyl-Ala-Ala-Pro-Phe p-nitroanilide (0 to 50 μL of 9.60 mM in DMSO) was added to sodium phosphate buffer (990 to 940 μL of 100 mM, pH 5-10). Native CT or conjugates solution (10 μL of 4.0 μM) was added to the substrate solution. The initial rate of hydrolysis of the peptide substrate was monitored by recording the increase in absorption at 412 nm using a UV-VIS spectrometer. The Michaelis-Menten parameters (kcat, KM and kcat/KM) were determined by non-linear curve fitting (using the well known Michaelis-Menten kinetics equation, V=Vmax[S]/KM+[S], […] where [E] is enzyme concentration, [S] is substrate concentration, and V is initial rate of the reaction) of plots of initial rate versus substrate concentration using the Enzfitter software.
Enzyme activity (kcat), specificity (KM), and productivity (kcat/KM) values were determined for each of the conjugates and native chymotrypsin at 25° C. in 0.1 M phosphate buffer (pH 5-10). Values were determined by monitoring the enzyme catalyzed hydrolysis of Suc-AAPF-pNA. Enzyme concentration for each of the reactions was 39 nM, with substrate concentrations ranging from 0-700 μM. The reaction was monitored for the first 30 seconds after mixing enzyme and substrate.

[4] = Stability in artificial gastric acid solution, 167 mM HCl, 37° C. (chymotrypsin-pQA); assay type: physicochemical; conditions: 167 mM HCl (pH 1)
Method: Native CT and conjugates (1.5 to 2.0 mL, 4.0 μM) were incubated in 100 mM sodium phosphate buffer (pH 7.0) at 50 or 60° C., and an artificial gastric acid solution (167 mM HCl aq. pH 1.5) at 37° C. Aliquots (50 μL) were removed and kept at 0° C. before measuring residual activity. The residual activity was calculated as a ratio of initial rates of hydrolysis reaction at given incubation time over the initial activity for each specific sample.

For “α-Chymotrypsin (CT) from bovine pancreas (type II) [Native CT]”, the Km (NS-AAPF-pNA; 2.5° C., 0.1 M sodium phosphate pH 8.0) was 30 ± 5.1 µM, the kcat (NS-AAPF-pNA; 2.5° C., pH 8.0) was 8.9 ± 0.4 s⁻¹ and the kcat (NS-AAPF-pNA; 2.5° C., pH 8.0, listed as native chymotrypsin) was 8.9 ± 0.4 s⁻¹. It also gave a Km (NS-AAPF-pNA; 7° C., pH 8.0) of 29 ± 6.9 µM, a kcat (NS-AAPF-pNA; 7° C., pH 8.0) of 9.7 ± 0.5 s⁻¹ and a kcat (NS-AAPF-pNA; 7° C., pH 8.0, listed as native chymotrypsin) of 9.7 ± 0.5 s⁻¹. It also gave a Km (NS-AAPF-pNA; 16.5° C., pH 8.0) of 37 ± 8.6 µM, a kcat (NS-AAPF-pNA; 16.5° C., pH 8.0) of 16 ± 0.9 s⁻¹ and a kcat (NS-AAPF-pNA; 16.5° C., pH 8.0, listed as native chymotrypsin) of 16 ± 0.9 s⁻¹. It also gave a Km (NS-AAPF-pNA; 24.5° C., pH 8.0) of 51 ± 8.7 µM, a kcat (NS-AAPF-pNA; 24.5° C., pH 8.0) of 25 ± 1.3 s⁻¹ and a kcat (NS-AAPF-pNA; 24.5° C., pH 8.0, listed as native chymotrypsin) of 25 ± 1.3 s⁻¹. The Km (NS-AAPF-pNA; 33° C., pH 8.0) was 57 ± 5 µM, the kcat (NS-AAPF-pNA; 33° C., pH 8.0) was 36 ± 1.3 s⁻¹ and the kcat (NS-AAPF-pNA; 33° C., pH 8.0, listed as native chymotrypsin) was 36 ± 1.3 s⁻¹. For the same substance, the Km (NS-AAPF-pNA; 37.5° C., pH 8.0) was 59 ± 6.9 µM, the kcat (NS-AAPF-pNA; 37.5° C., pH 8.0) was 47 ± 1.7 s⁻¹ and the kcat (NS-AAPF-pNA; 37.5° C., pH 8.0, listed as native chymotrypsin) was 47 ± 1.7 s⁻¹. For the same substance, the “time after which all activity was lost” value ([1]; 50° C.) was 2 h, the “time in which all activity was lost” value ([1]; 60° C.) was 30 min and the “GM Ki, fold higher than chymotrypsin-pQA198” value ([2]; GM) was roughly 4 fold. For the same substance, the “Apparent Vmax” value ([2]; GM [I]0 0 mM, 25° C.) was 1.10 mM/s, the KM/Vmax ([2]; GM [I]0 0 µM, 25° C.) was 71.8 s⁻¹ and the KM/Vmax ([2]; GM [I]0 0.049 µM, 25° C.) was 90.4 s⁻¹. It also gave a KM/Vmax ([2]; GM [I]0 0.098 µM, 25° C.) of 102.2 s⁻¹, a KM/Vmax ([2]; GM [I]0 0.147 µM, 25° C.) of 150.1 s⁻¹ and a KM/Vmax ([2]; GM [I]0 0.196 µM, 25° C.) of 159.9 s⁻¹. The KM/Vmax ([2]; GM [I]0 0.294 µM, 25° C.) was 188.0 s⁻¹, the “Apparent Vmax” value ([2]; GM [I]0 0.049 mM, 25° C.) was 1.05 mM/s and the “Apparent Vmax” value ([2]; GM [I]0 0.098 mM, 25° C.) was 1.18 mM/s. The “Apparent Vmax” value ([2]; GM [I]0 0.147 mM, 25° C.) was 1.21 mM/s, the “Apparent Vmax” value ([2]; GM [I]0 0.196 mM, 25° C.) was 1.23 mM/s and the “Apparent Vmax” value ([2]; GM [I]0 0.294 mM, 25° C.) was 1.14 mM/s. The Ki ([2]; inhibitor Glycine Max, 25° C.) was 172 nM, the “increase of hydrodynamic diameter (Dh)” value ([3]; 37° C., after 2 hours) was 9 fold and the “hydrodynamic diameter Dh at time zero” value ([3]; time zero) was 6.3±0.5 nm. The Km (Suc-AAPF-pNA; pH 5.0, 25° C.) was 184 µM, the kcat (Suc-AAPF-pNA; pH 5.0, 25° C.) was 2.85 s⁻¹ and the Km (Suc-AAPF-pNA; pH 6.0, 25° C.) was 171 µM. For the same substance, the kcat (Suc-AAPF-pNA; pH 6.0, 25° C.) was 14.80 s⁻¹, the Km (Suc-AAPF-pNA; pH 7.0, 25° C.) was 94.3 µM and the kcat (Suc-AAPF-pNA; pH 7.0, 25° C.) was 26.81 s⁻¹. For the same substance, the Km (Suc-AAPF-pNA; pH 8.0, 25° C.) was 82.6 µM, the kcat (Suc-AAPF-pNA; pH 8.0, 25° C.) was 32.00 s⁻¹ and the Km (Suc-AAPF-pNA; pH 9.0, 25° C.) was 123 µM. For the same substance, the kcat (Suc-AAPF-pNA; pH 9.0, 25° C.) was 33.30 s⁻¹, the Km (Suc-AAPF-pNA; pH 10.0, 25° C.) was 336 µM and the kcat (Suc-AAPF-pNA; pH 10.0, 25° C.) was 36.62 s⁻¹. For the same substance, the “time after which all activity was lost” value [4] was 3 h.
